Laboratory results from the supplement of paper PMC9112550, “Optimization of the antimicrobial peptide Bac7 by deep mutational scanning” (BMC Biology, 2022).

Tested on: Escherichia coli TOP10
Experiment: shrunken log2 fold change of peptide-encoding DNA abundance (4.5 h post-induction vs induction); higher = less antimicrobial activity (less host growth inhibition)
Settings: time post-induction: 4.5 h; library: site-saturation at positions 5, 18, 19, 20
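Also: peptides expressed intracellularly from a pBAD plasmid library in pooled LB shake-flask culture, induced with 0.3% L-arabinose, DNA abundance read by NGS, three biological replicates, DESeq2 with apeglm shrinkage.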

Point of comparison: RRIRARPPRLPRPRPRPDVVPRP, “shrunken log2 fold change” value -0.101. Against it:
- RRIRARPPRLPRPRPRPACCPRP — higher, 0.658
- RRIRARPPRLPRPRPRPACFPRP — higher, 0.736
- RRIRARPPRLPRPRPRPADEPRP — higher, 0.678
- RRIRARPPRLPRPRPRPADLPRP — higher, 0.729
- RRIRARPPRLPRPRPRPAERPRP — higher, 0.301
- RRIRARPPRLPRPRPRPAGAPRP — higher, 1.16
- RRIRARPPRLPRPRPRPAGKPRP — higher, 0.164
- RRIRARPPRLPRPRPRPAGRPRP — higher, 0.723
- RRIRARPPRLPRPRPRPAGSPRP — within 0.2 log units, 0.0823
- RRIRARPPRLPRPRPRPAGVPRP — higher, 0.45
- RRIRARPPRLPRPRPRPAGWPRP — higher, 1.56
- RRIRARPPRLPRPRPRPAKKPRP — within 0.2 log units, -0.0777
- RRIRARPPRLPRPRPRPALFPRP — higher, 0.61
- RRIRARPPRLPRPRPRPAMFPRP — within 0.2 log units, -0.0337
- RRIRARPPRLPRPRPRPANHPRP — within 0.2 log units, -0.129
- RRIRARPPRLPRPRPRPANNPRP — within 0.2 log units, -0.0617
- RRIRARPPRLPRPRPRPAQYPRP — higher, 0.175
- RRIRARPPRLPRPRPRPARPPRP — higher, 0.827
- RRIRARPPRLPRPRPRPASMPRP — higher, 0.301
- RRIRARPPRLPRPRPRPASNPRP — higher, 0.5
- RRIRARPPRLPRPRPRPAVEPRP — higher, 0.666
- RRIRARPPRLPRPRPRPAVFPRP — higher, 0.679
- RRIRARPPRLPRPRPRPAYRPRP — within 0.2 log units, -0.086
- RRIRARPPRLPRPRPRPCCDPRP — higher, 0.404
- RRIRARPPRLPRPRPRPCCIPRP — higher, 0.13
- RRIRARPPRLPRPRPRPCDHPRP — within 0.2 log units, 0.0696
- RRIRARPPRLPRPRPRPCEFPRP — higher, 0.168
- RRIRARPPRLPRPRPRPCEQPRP — higher, 0.233
- RRIRARPPRLPRPRPRPCETPRP — within 0.2 log units, 0.00546
- RRIRARPPRLPRPRPRPCHDPRP — within 0.2 log units, -0.00479
- RRIRARPPRLPRPRPRPCHNPRP — within 0.2 log units, -0.161
- RRIRARPPRLPRPRPRPCIEPRP — higher, 0.105
- RRIRARPPRLPRPRPRPCIMPRP — within 0.2 log units, -0.00141
- RRIRARPPRLPRPRPRPCIRPRP — lower, -0.365
- RRIRARPPRLPRPRPRPCMQPRP — within 0.2 log units, -0.125
- RRIRARPPRLPRPRPRPCNVPRP — within 0.2 log units, -0.0688
- RRIRARPPRLPRPRPRPCNYPRP — within 0.2 log units, -0.178
- RRIRARPPRLPRPRPRPCQMPRP — within 0.2 log units, -0.0341
- RRIRARPPRLPRPRPRPCQRPRP — higher, 0.246
- RRIRARPPRLPRPRPRPCQWPRP — within 0.2 log units, -0.0491
- RRIRARPPRLPRPRPRPCSCPRP — within 0.2 log units, 0.0516
- RRIRARPPRLPRPRPRPCVRPRP — higher, 0.135
- RRIRARPPRLPRPRPRPCYDPRP — lower, -0.56
- RRIRARPPRLPRPRPRPCYFPRP — lower, -0.324
- RRIRARPPRLPRPRPRPCYWPRP — within 0.2 log units, -0.000727
- RRIRARPPRLPRPRPRPDAEPRP — higher, 1.63
- RRIRARPPRLPRPRPRPDAHPRP — higher, 0.876
- RRIRARPPRLPRPRPRPDAMPRP — higher, 1.02
- RRIRARPPRLPRPRPRPDEDPRP — higher, 2.09
- RRIRARPPRLPRPRPRPDFIPRP — within 0.2 log units, -0.0493
- RRIRARPPRLPRPRPRPDIGPRP — within 0.2 log units, 0.0329
- RRIRARPPRLPRPRPRPDIKPRP — within 0.2 log units, -0.026
- RRIRARPPRLPRPRPRPDKCPRP — within 0.2 log units, -0.0816
- RRIRARPPRLPRPRPRPDLEPRP — within 0.2 log units, 0.0744
- RRIRARPPRLPRPRPRPDMTPRP — higher, 0.723
- RRIRARPPRLPRPRPRPDPIPRP — lower, -0.521
- RRIRARPPRLPRPRPRPDQLPRP — higher, 0.421
- RRIRARPPRLPRPRPRPDQSPRP — higher, 0.113
- RRIRARPPRLPRPRPRPDRRPRP — within 0.2 log units, 0.086
- RRIRARPPRLPRPRPRPDRYPRP — lower, -0.474
- RRIRARPPRLPRPRPRPDSKPRP — higher, 0.149
- RRIRARPPRLPRPRPRPDSQPRP — higher, 0.0999
- RRIRARPPRLPRPRPRPDTAPRP — higher, 0.147
- RRIRARPPRLPRPRPRPDTDPRP — higher, 0.365
- RRIRARPPRLPRPRPRPDTYPRP — within 0.2 log units, -0.11
- RRIRARPPRLPRPRPRPDVIPRP — within 0.2 log units, 0.0534
- RRIRARPPRLPRPRPRPDVNPRP — within 0.2 log units, 0.0462
- RRIRARPPRLPRPRPRPDWEPRP — higher, 0.334
- RRIRARPPRLPRPRPRPDYAPRP — higher, 2.44
- RRIRARPPRLPRPRPRPEAAPRP — higher, 1.78
- RRIRARPPRLPRPRPRPEAYPRP — higher, 0.114
- RRIRARPPRLPRPRPRPECGPRP — higher, 1.23
- RRIRARPPRLPRPRPRPECRPRP — higher, 0.874
- RRIRARPPRLPRPRPRPECVPRP — higher, 1.07
- RRIRARPPRLPRPRPRPEECPRP — higher, 1.27
- RRIRARPPRLPRPRPRPEEIPRP — higher, 0.289
- RRIRARPPRLPRPRPRPEEVPRP — within 0.2 log units, 0.0554
- RRIRARPPRLPRPRPRPEFKPRP — within 0.2 log units, 0.0365
- RRIRARPPRLPRPRPRPEGCPRP — higher, 1.31
- RRIRARPPRLPRPRPRPEILPRP — higher, 0.74
- RRIRARPPRLPRPRPRPEIPPRP — higher, 0.3
- RRIRARPPRLPRPRPRPEKAPRP — within 0.2 log units, 0.046
- RRIRARPPRLPRPRPRPELVPRP — higher, 1.3
- RRIRARPPRLPRPRPRPEMEPRP — higher, 1.3
- RRIRARPPRLPRPRPRPEMKPRP — higher, 3.7
- RRIRARPPRLPRPRPRPEMNPRP — higher, 0.655
- RRIRARPPRLPRPRPRPEQGPRP — higher, 0.388
- RRIRARPPRLPRPRPRPERDPRP — higher, 0.613
- RRIRARPPRLPRPRPRPETGPRP — higher, 0.772
- RRIRARPPRLPRPRPRPETLPRP — higher, 1.15
- RRIRARPPRLPRPRPRPETVPRP — higher, 0.312
- RRIRARPPRLPRPRPRPEVCPRP — higher, 1.25
- RRIRARPPRLPRPRPRPEVMPRP — higher, 0.28
- RRIRARPPRLPRPRPRPEVNPRP — higher, 0.291
- RRIRARPPRLPRPRPRPEYRPRP — within 0.2 log units, 0.0382
- RRIRARPPRLPRPRPRPFAFPRP — higher, 0.552
- RRIRARPPRLPRPRPRPFCLPRP — within 0.2 log units, 0.0753
- RRIRARPPRLPRPRPRPFDEPRP — higher, 0.194
- RRIRARPPRLPRPRPRPFDMPRP — within 0.2 log units, 0.0608
- RRIRARPPRLPRPRPRPFESPRP — higher, 0.0991
- RRIRARPPRLPRPRPRPFFTPRP — higher, 0.617
- RRIRARPPRLPRPRPRPFGPPRP — within 0.2 log units, 0.0166
- RRIRARPPRLPRPRPRPFHCPRP — higher, 0.252
- RRIRARPPRLPRPRPRPFHHPRP — within 0.2 log units, -0.294
- RRIRARPPRLPRPRPRPFIQPRP — within 0.2 log units, 0.0556
- RRIRARPPRLPRPRPRPFKCPRP — within 0.2 log units, -0.0202
- RRIRARPPRLPRPRPRPFKGPRP — within 0.2 log units, -0.104
- RRIRARPPRLPRPRPRPFKHPRP — within 0.2 log units, -0.27
